Measured values reported in article doi:10.1101/2023.11.30.569392.

Target: T1, recTZF-WT (GST-TEV-TTP TZF) (Mus musculus, UniProt P22893 93-165)
T1 sequence: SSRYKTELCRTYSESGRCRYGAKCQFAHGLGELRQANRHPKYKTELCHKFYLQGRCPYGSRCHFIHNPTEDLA
Experiment: EMSA

AUUAUUUAUUAUUUAUUUAUUAUUUA (ssRNA) [Tnf-ARE]
binding result: binds
